Measurements: patent US6063592A, “Kell protein proteolytic activity” (New York Blood Center, Inc., priority 1998, dated 2000)
Where a chain is given by its changes, count along the chain named. Numbers in names are those of the source. Residues, ends and D or L forms follow the SMILES beside them.

Assays:
[1] = target: T1, Kell protein (Homo sapiens, UniProt P23276); assay: Bradykinin cleavage by Kell protein; assay type: biochemical
T1 sequence (P23276 1-732): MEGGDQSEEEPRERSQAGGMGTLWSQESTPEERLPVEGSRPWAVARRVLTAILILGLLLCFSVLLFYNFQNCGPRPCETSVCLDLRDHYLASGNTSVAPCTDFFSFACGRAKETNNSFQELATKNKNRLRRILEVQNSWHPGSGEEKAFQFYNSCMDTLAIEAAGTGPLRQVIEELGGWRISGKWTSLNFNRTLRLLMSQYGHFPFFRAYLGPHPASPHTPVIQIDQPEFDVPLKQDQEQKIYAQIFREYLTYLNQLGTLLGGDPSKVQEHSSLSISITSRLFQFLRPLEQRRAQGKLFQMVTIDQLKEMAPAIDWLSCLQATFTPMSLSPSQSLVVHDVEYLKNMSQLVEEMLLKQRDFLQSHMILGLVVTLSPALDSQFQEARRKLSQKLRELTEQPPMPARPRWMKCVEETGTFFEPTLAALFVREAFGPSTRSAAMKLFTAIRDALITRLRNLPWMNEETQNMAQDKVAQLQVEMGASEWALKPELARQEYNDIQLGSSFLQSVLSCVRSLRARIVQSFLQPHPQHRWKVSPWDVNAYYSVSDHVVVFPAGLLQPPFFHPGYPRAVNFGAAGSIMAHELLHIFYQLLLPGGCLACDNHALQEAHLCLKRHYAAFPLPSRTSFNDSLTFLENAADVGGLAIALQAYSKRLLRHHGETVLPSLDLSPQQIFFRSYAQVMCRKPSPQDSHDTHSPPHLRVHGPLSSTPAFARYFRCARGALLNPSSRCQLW

[2] = target: T2, Kell protein (Homo sapiens, UniProt P23276); assay: Digestion of big endothelins with soluble recombinant Kell protein, HPLC analysis; assay type: biochemical; details: for cleavage by wild-type Kell and Jsa Kell: N-terminal sequencing and mass spectrometry of cleaved products, yields endothelins; for Km: measured by HPLC, read-out: substrate affinity for cleavage by Kell protein
T2 construct: placing the cDNA that encodes the extracellular portion of Kell in a baculovirus transfer vector pAcGP67-A; made in house; host or cells: sf9 insect cells, baculovirus (pAcGP67A), protein-containing culture medium
T2 sequence (P23276 68-732 limits assumed): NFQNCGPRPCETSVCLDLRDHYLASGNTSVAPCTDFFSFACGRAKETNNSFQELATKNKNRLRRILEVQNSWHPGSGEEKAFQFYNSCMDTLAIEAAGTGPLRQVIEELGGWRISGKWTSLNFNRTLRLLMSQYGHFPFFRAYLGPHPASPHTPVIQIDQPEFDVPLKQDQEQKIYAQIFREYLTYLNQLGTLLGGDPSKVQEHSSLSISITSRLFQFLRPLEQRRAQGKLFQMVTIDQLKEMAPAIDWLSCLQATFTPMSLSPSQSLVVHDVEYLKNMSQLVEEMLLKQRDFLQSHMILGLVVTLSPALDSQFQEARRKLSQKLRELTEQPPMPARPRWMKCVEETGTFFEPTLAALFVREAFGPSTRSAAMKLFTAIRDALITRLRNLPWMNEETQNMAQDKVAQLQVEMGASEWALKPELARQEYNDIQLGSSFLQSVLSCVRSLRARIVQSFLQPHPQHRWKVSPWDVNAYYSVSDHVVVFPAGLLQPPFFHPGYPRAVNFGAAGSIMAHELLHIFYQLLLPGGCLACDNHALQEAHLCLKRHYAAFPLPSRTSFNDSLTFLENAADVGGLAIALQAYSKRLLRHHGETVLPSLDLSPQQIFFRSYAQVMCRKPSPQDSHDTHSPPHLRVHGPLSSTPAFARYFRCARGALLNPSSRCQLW
Method: Digestion of Big Endothelin-1,-2, and -3 (Big ET-1, -2, and -3) With Soluble Recombinant Proteins
Enzyme reaction mixture was made by mixing 8-16 μl of 1 mg/ml big ET-1 (1-38), big ET-2 (1-37 or 1-38) and big ET-3 (1-41) (American Peptide Co., Sunnyvale, Calif. and Sigma, St. Louis, Mo. and Peptide Institute, Inc., Osaka, Japan), 10 μl 1 mM ZnCl2 final concentration 86 μM and 70 μl recombinant protein containing media. The mixture was incubated at 37° C. for different time periods. Twenty to 25 aliquots of this incubation mix was assayed by reverse HPLC. The conditions of the analysis were:
Solvent A: 0.1% TFA/2,5% 1-Propanol (PrOH)/H2 O (500 μl
Trifluoroacetic acid+1 L H2 O+25 ml 1-PrOH).
Solvent B; 0.09% TFA/2.5% 1-PrOH/90% Acetonitrile/H2 O (450 μl
TFA+1 L Acetonitrile+100 ml H2 O+25 ml 1-PrOH).
Gradient condition was 1-61% A In B over 0-60 minutes at a flow rate of 0.15 ml/min. The column used was reverse phase C18 column (2×150 mm, Vydac).

[3] = target: T2, Kell protein; assay: Digestion of big endothelins with soluble recombinant Kell protein, EIA assay; assay type: biochemical; details: measured by EIA; 15 min; read-out: substrate affinity for cleavage by Kell protein
Method: Enzyme reaction mix was made by mixing various amounts of 10 μM big ET's, 20 μl of 10 Kell assay buffer (0.5 M HEPES, 0.5 mM ZnCl2 and 1.5 NaCl containing 4% (v/v) of supernatant boiled BSA) and various amounts of soluble protein containing media (ranging from 0.0313 μl to 4 μl) and H2 O to make a total volume of 200 μl. The enzyme reaction was incubated at 37° C. for 15 min. At the end of the incubation time, 100 μl of 5 mM EDTA was added to terminate the reaction. Various amounts of the sample up to 100 μl were used in Enzyme-linked Immunoassay using Endothelin-1EIA kit (Cayman Chemical).

[4] = target: Big Endothelin-2 (1-37)
[5] = target: Big Endothelin-3 (1-41) (Homo sapiens)
[6] = target: Big Endothelin-1 (1-38) (Homo sapiens)
[7] = test system: Kell protein; assay: Inhibition of Kell proteolytic activity by phosphoramidon; assay type: biochemical, human
[8] = target: T2, Kell protein; assay: as above; assay type: biochemical; details: Kell protease; read-out: Concentration which gives 50% of inhibition
[9] = test system: hematopoiesis cell culture system; assay: Hematopoiesis cell culture system grown on methyl cellulose plates; assay type: cell-based; details: preliminary studies
From the text: Meanwhile, the concentration of phosphoramidon needed to inhibit the proteolytic cleavage of big-endothelins by ECE-1 and Kell protein are different. While it is not intended to be bound by theory, it is possible that Kell participates in the proteolytic processing of growth factors or cytokines during hematopoiesis.

[10] = test system: Soluble Kell proteins (sKell); assay: VIP cutting by sKell proteins; assay type: biochemical, human; details: sf9 protein free media containing sKell
From the text: Soluble Kell proteins (sKell) proteins were used to cut vasoactive intestinal peptide (VIP).

[11] = target: T3, Kell protease (Homo sapiens, UniProt P23276); assay: pH optimum of Kell protease; assay type: biochemical
T3 sequence (P23276 1-732): T1 sequence (P23276 1-732)

For `NC(N)=NCCC[C@H](NC(=O)[C@H](Cc1ccccc1)NC(=O)[C@@H]1CCCN1C(=O)[C@H](CO)NC(=O)[C@H](Cc1ccccc1)NC(=O)CNC(=O)[C@@H]1CCCN1C(=O)[C@@H]1CCCN1C(=O)[C@@H](N)CCCN=C(N)N)C(=O)O` [bradykinin] (H-RPPGFSPFR-OH), the “cleavage by Kell protein” value [1] was “does not cleave”.

In the case of “big-endothelin-2: inactive precursor of endothelin-2, substrate of Kell protein (CSCSSWLDKECVYFCHLDIIWVNTPEQTAPYGEGNPP)”, the “cleavage by wild-type Kell and Jsa Kell” value [2] is reported as “cleaved” and the Km [2] is reported as ~20 µM.

For “big-endothelin-1: inactive 38 amino acid precursor of endothelin-1, substrate of Kell protein (CSCSSLMDKECVYFCHLDIIWVNTPEHVVPYGLGSPRS)”, the “cleavage by wild-type Kell and Jsa Kell” value [2] was “cleaved” and the Km [2] was ~80 µM.

In the case of “big-endothelin-3: inactive precursor of endothelin-3, substrate of Kell protein (CTCFTYKDKECVYYCHLDIIWVNTPEQTVPYGLSNYRGSFR)”, the “cleavage by wild-type Kell and Jsa Kell” value [2] is reported as “cleaved” and the Km [3] is reported as < 2 µM.

With “soluble wild type Kell (secreted form of wild-type Kell protein, extracellular portion, expressed in sf9 cells) (from UniProt P23276) (enzyme)” the cleavage of big endothelin-2; substrate affinity (HPLC) [4] was 20 µM, the cleavage of big endothelin-3; substrate affinity (EIA) [5] was < 2 µM and the cleavage of big endothelin-1; substrate affinity (HPLC) [6] was 80 µM.

For `CC(C)C[C@H](NP(=O)(O)O[C@@H]1O[C@@H](C)[C@H](O)[C@@H](O)[C@H]1O)C(=O)N[C@@H](Cc1c[nH]c2ccccc12)C(=O)O` [Phosphoramidon], the “inhibition of Kell enzymatic activity” value [7] was “inhibited”, the IC50 [8] was 50 to 100 µM and the “effect on cell growth” value ([9]; higher concentration of phosphoramidon (50-100 μM)) was “inhibited cell growth”. For the same molecule, the “effect on cell growth” value ([9]; low concentration of phosphoramidon (3.5-7.0 μM)) was “increased cell growth”.

For “VIP: vasoactive intestinal peptide (1-28), a vasodilator (HSDAVFTDNYTRLRKQMAVKKYLNSILN)”, the “cleavage of VIP by soluble Kell” value [10] was “cleaves” and the “cleavage of VIP by soluble Kell” value ([10]; listed as vasoactive intestinal peptide (VIP)) was “cleaved”.

B1: Kell protease: secreted recombinant wild-type human Kell blood group protein expressed in sf9 cells (protein)
chain: T2 sequence (P23276 68-732 limits assumed)
With B1 the pH optimum [11] was 6.0-6.5.

B2: Jsa: secreted form of Js^a Kell phenotype (L597P) (protein)
chain: T2 sequence (P23276 68-732 limits assumed) with L530P
B2 was tested, and the “cleavage of VIP by soluble Kell” value [10] was “cleaves more than wild type Kell”.
